Experimental findings from patent US7049080B2, “Process for detecting serine/threonine kinase activity” (priority 2000, dated 2006) are described below.

Test [1] deals with T1, MKK7 (Homo sapiens, UniProt O14733).
T1 construct: purchased Upstate Biotech 14-366
T1 sequence (O14733 1-419): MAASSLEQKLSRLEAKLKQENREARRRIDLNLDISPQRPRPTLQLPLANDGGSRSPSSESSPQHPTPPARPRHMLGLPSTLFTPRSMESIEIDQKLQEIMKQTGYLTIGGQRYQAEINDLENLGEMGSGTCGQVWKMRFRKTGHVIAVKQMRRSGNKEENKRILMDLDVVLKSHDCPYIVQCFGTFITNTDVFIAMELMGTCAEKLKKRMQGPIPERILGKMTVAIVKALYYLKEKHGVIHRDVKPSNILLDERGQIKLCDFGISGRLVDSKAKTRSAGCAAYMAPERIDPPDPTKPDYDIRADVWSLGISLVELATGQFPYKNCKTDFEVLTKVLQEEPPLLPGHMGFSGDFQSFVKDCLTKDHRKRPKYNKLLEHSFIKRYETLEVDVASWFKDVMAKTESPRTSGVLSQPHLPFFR
As to the kind of experiment: Determination of Km for ATP (MKK7 phosphorylation, FP read-out). It counts as biochemical. Particulars: MKK7 80 nM, P1° 100 μM, RT. Here is the method:
Efficient phosphorylation of P1^∘ peptide is dependent on the optimal ATP concentration. […] From the detected fluorescence polarization signals, the Michaelis-Menten constant (Km), reflecting the half-maximal phosphorylation rate, was determined for ATP.
Determination of Km for ATP (Read-out: Fluorescence Polarization): […]

Test [2] concerns the target Anti active SAPK1/JNK-specific polyclonal antibody, New England Biolabs NEB #9251. As to the kind of experiment: fluorescence polarization, 200 nM P1*° competing with TAMRA-P1*° (5 nM) for antibody 1:20, 0 h. A general note: Fluorescence polarisation rises when a labelled molecule tumbles more slowly, as on binding a larger partner.
For test [3] the target is unchanged. As to the kind of experiment: fluorescence correlation spectroscopy, competition with TAMRA-P1*° (5 nM) for the NEB antibody (1:20).
For test [4] the target is unchanged. As to the kind of experiment: fluorescence polarization, competition with TAMRA-P1*° (5 nM) for NEB #9251 (1:20) in presence of 100 µM P1° substrate peptide, 20 µM ATP, 10 mM MgCl2.

Non-standard residues stand in square brackets, D forms with d. pY = N[C@@H](Cc1ccc(OP(=O)(O)O)cc1)C(=O)O; pT = C[C@@H](OP(=O)(O)O)[C@H](N)C(=O)O

Consider `Nc1ncnc2c1ncn2[C@@H]1O[C@H](COP(=O)(O)OP(=O)(O)OP(=O)(O)O)[C@@H](O)[C@H]1O` [ATP], for which, in test [1], the Vmax stood at 0.28 mP/min.

B1: P1*° peptide, H-Lys-Phe-Met-Met-pThr-Pro-pTyr-Val-Val-Thr-Arg-NH2 (peptide)
peptide: H-KFMM[pT]P[pY]VVTR-NH2
SMILES: CSCC[C@H](NC(=O)[C@H](Cc1ccccc1)NC(=O)[C@@H](N)CCCCN)C(=O)N[C@@H](CCSC)C(=O)N[C@H](C(=O)N1CCC[C@H]1C(=O)N[C@@H](Cc1ccc(OP(=O)(O)O)cc1)C(=O)N[C@H](C(=O)N[C@H](C(=O)N[C@H](C(=O)N[C@@H](CCCNC(=N)N)C(N)=O)[C@@H](C)O)C(C)C)C(C)C)[C@@H](C)OP(=O)(O)O
B1 yielded a fluorescence polarization in test [2] of 84.5 mP. The 50% inhibitory concentration (IC50) stood at 5 nM in test [3] and 35.1 nM in test [4].

In general, IC50 refers to the concentration needed to halve the response being measured.
